The source of these data is article PMC8489136, “LncRNA MALAT1 was regulated by HPV16 E7 independently of pRB in cervical cancer cells”.

This series concerns the target HPV16 E7 (His-E7) (Human papillomavirus type 16, UniProt P03129 1-98). In words: EMSA; inhibited by excess unlabeled probe; EMSA buffer, salt, pH and temperature not given; UV crosslinking: 20 min incubation in binding buffer (composition not given), 254 nm 30 min on ice. The note with it: protein: recombinant; tags: His; label: biotin; blunt. On the technique in general: A gel shift assay detects complexes by their altered migration in electrophoresis.

HPV16 E7 (His-E7), sequence (P03129 whole entry): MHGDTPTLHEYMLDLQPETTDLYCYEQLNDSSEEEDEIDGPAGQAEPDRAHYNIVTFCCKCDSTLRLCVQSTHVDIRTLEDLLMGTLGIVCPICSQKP

B1: MALAT1 promoter probe1 (dsDNA)
DNA 1: CAGGCGTTAGGGCGGGGCGCGCGTGC
DNA 2: GCACGCGCGCCCCGCCCTAACGCCTG
modifications: 5'-biotin
Regarding B1, the binding result is reported as “binds”.

B2: MALAT1 promoter probe2 (dsDNA)
DNA 1: AGCTGCCACCCCGCCCCCATGCCAT
DNA 2: ATGGCATGGGGGCGGGGTGGCAGCT
modifications: 5'-biotin
As for B2, the binding result was “binds”.
